Measured values reported in ChEMBL document CHEMBL2074060, “MDR1 P-glycoprotein transports endogenous opioid peptides” (Peptides, 2001).

Test system: C[C@@H](NC(=O)[C@@H](N)Cc1ccc(O)cc1)C(=O)NCC(=O)N(C)[C@@H](Cc1ccccc1)C(=O)NCCO
Experiment: TP_TRANSPORTER: uptake in membrane vesicle from MDR1-expressing SW1573/S1 cell
Format: functional, cell membranes

## ATP-dependent translocase ABCB1 (Homo sapiens)
  Km: 43 µM
